From paper PMC10863865 (PLOS Pathogens, 2024)

B1: Gc13 monoclonal antibody (antibody, V domains shown)
VH: QVQLQQSGPEVVRPGVSVKISCKGSGYTFTDYATHWVKQSHVKSLEWIGVISTYNGETDCNQKFKGKATMTVDKSSSTAYMELARLTSEDSAIYYCANGYYQAMDYWGQGTSVTVSS
VL: DIQMTQTPSSLSASLGDRVTISCRASQDISNYLNWYQQRPDGTLKLLIYYTSRLHSGVPSRFSGSGSGTDYSLTISNLEQEDIATYFCQQGSTLPWTFGGGTKLEIK
notes: also called mAb Gc13; copies: 2 + 2
B2: Gc8 monoclonal antibody (antibody, V domains shown)
VH: QVQLQQPGAEVVKPGASVKMSCKASGYTFTSYSMHWVKQTPGQGLEWIGAIYPGNGDTSYNQKFKGKATLTADKSSSTAYMQLSSLTSEDSAGYYCARGDQYYGYFDFWGQGTTLTVSS
VL: DIQMTQSPASLSASVGETVTITCRTSENIYSFLAWYQQKQGKSPQRLVSHAKALAEGVPSRFSGSGTGTQFSLKINSLQPEDFGSYYCQHHYGIPLTFGAGTKLELK
notes: also called mAb Gc8; copies: 2 + 2

How the values were obtained:
[1] = target: Gc protein in CCHFV-YL16070-infected Vero E6 cells (Crimean-Congo hemorrhagic fever virus, …, strain); test: western blot; conditions: one partner purified
[2] = target: T1, sGc-S-tag (Gc ectodomain of CCHFV-YL16070 with an S-tag) (Crimean-Congo hemorrhagic fever virus, …, strain, biotin (labelled for BLI)); test: BLI; […] (25 ug/mL), […]; PBS with 0.1% BSA and 0.02% Tween-20; association 600 s, dissociation 600 s; Octet-Red 96; conditions: both partners purified
T1 construct: not shown: S-tag, N-terminal, kept

Binder	binding result [1]	Kd [2] [nM]
B1	binds	0.0324
B2	binds	0.0834
